The supplement of paper PMC9170038

System: K4 kissing-loop RNA reporter
Test: apparent KD of K4 kissing-loop reporter; higher = weaker reporter binding
Conditions: Eterna round: R107
Protocol: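 RNA-MaP round R107: designed RNA switches with theophylline, tryptophan, arginine or FMN aptamers are transcribed on-chip within common flanks. They are titrated with a labelled K4 kissing-loop RNA reporter in RNA-MaP buffer (100 mM Tris pH 7.5, 80 mM KCl, 4 mM MgCl2), without ligand or with the indicated ligand. Median apparent KD per design.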

[1] = input ligand: theophylline 20 uM
[2] = input ligand: tryptophan 2.4 mM
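Also: bound reporter read as fluorescence of individual clusters on recovered sequencing chips by microscopy, with normalized cluster intensities fitted with a binding model.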

Sequence	apparent KD of K4 kissing-loop reporter (input ligand: FMN 200 uM)	apparent KD of K4 kissing-loop reporter (input ligand: arginine 13.2 mM)	apparent KD of K4 kissing-loop reporter (input ligand: none)	apparent KD of K4 kissing-loop reporter [1]	apparent KD of K4 kissing-loop reporter [2]
AAUCGCGAGUCAGAUACCAGUUGGCUCGAGAGUCAGUGAUGUUGAUGUAAAUCUUAGGCGAACCCUUGGCAGCUGUCACCAGUCC [theeternabot_sameState_KL_Theo_B_27]	404 nM	326 nM	354 nM	346 nM	325 nM
AAUCUCGUCCUGGAUACCAGUCGCACGGUUUGUCAUGUCAGCCAGUGAUGUUGCCUGCAUGACCCUUGGCAGCCAUUCUAUGAAU [theeternabot_exclusion_KL_Theo_B_45]	284 nM	230 nM	311 nM	334 nM	246 nM
AAUGAUGAUUGACACAUUUACUAAAAGGAAGGAGCGGCGAUGUGGCCAGGUAGGUCGCCUUUUAGCAGUGAUGUUGCUAUAUGUU [JR_Nu_ExcArginiA_Sub026]	84.5 nM	108 nM	111 nM	152 nM	70.4 nM
AAUGUAAUGACGGCCGCCACUGAUUACCAGUGAUGUUGGUAAAGAACUUUAUAAGUCCUGGAAACCAGGACCGGGUCAACGGUCC [Tryp B Ex t1]	345 nM	294 nM	318 nM	309 nM	258 nM
AAUGUAUACUGAAGGAGCGAGUAGUGGAAACAUAAACUCAAUGCGAGUGAUGUUCGCAGUACUCAGGUAGGUCGCAGUAAUGGUA [Exclusion Arginine B Gf 8]	522 nM	311 nM	537 nM	468 nM	406 nM
AAUGUGCAGGGAAGGAGCGUAGUCCAGUGAUGUUGGAGUUAAAUACCAGUGAUGUUGGUUAUACAGGUAGGUCGCCCUAAAGCGC [Exclusion Arginine B Gf 5]	73.5 nM	67.7 nM	81.3 nM	98.3 nM	71 nM
AAUUAAUACAGAAGGAGCGUGUAUUUAACUACAAUUAUCUUAGCGAGUGAUGUUCGUUUUACACAGGUAGGUCGCUGUAUAUUUA [JR_ExcArginiB_Sub010]	201 nM	279 nM	235 nM	262 nM	157 nM
AAUUCUUAUCUUAGUAGAUUUCUAAUUAAACGAGGACCGGUACGGCCGCCACUCGGUUAUGAGUGAUGUUCAUGGAAUUACAUAA [JR_SSTryptoA_Sub018]	285 nM	486 nM	467 nM	486 nM	172 nM
AAUUUAUUAACUGAUACCAGACUUAAUAAAUUGUAAAUUACUAGUGAUGUUAGUGAAUUUGUCCCUUGGCAGCAGUAUUUAUUAA [JR_ExcTheophyB_Sub009]	123 nM	133 nM	124 nM	141 nM	106 nM
AAUUUGGGUUCGGCCGCCACUCCAGUGAUGUUGGAUGGCGAAAUAAAGGCUAGACCAGGUUGCCGGAGGACCGGGAAUCCUGUAC [Qumabi]	182 nM	152 nM	164 nM	139 nM	112 nM
ACAUCGGUUGAGAGUGAUGUUCCUUGUGUUCGAGGACCGGUACGGCCGCCACUCGGGUAGAAAAUAACAGAUGUGUUUCAUUUUU [BDazzled - #17 SS Tryptophan A]	180 nM	93.2 nM	141 nM	277 nM	271 nM
ACCUCACAGUGAUGUUGUGAGCCGAUAGUGAAGGAUAUUGUAAAGUCAAGAAGGUCAUGUCAGUCACAAAACGUUAAGCCUCGCA [theeternabot_exclusion_KL_FMN_A_19]	275 nM	218 nM	254 nM	266 nM	194 nM
ACGAAAUGCGACUCCUAGUUACACCGGGAAGGAGCGCGGAUAACCGCAGGUAGGUCGCCCGGAAGCCGGACCAGUGAUGUUGGUC [Exclusion Arginine A Gf 27]	240 nM	273 nM	182 nM	165 nM	217 nM
ACGACGCAUAGUGAUACCAGCAUUAUAUGAGUGAUGUUCUACCUAAAAUGGUAAUAAUGAUGCCCUUGGCAGCACUAUGCGUCAG [KL-SSTheoB2]	400 nM	453 nM	461 nM	638 nM	283 nM
ACGACUGGAUGAAUAACAUCUAGUCGAGAUCGAGGACCGGUACGGCCGCCACUCGAGCUAACUGCGAGUGAUGUUCGAUAAUAAA [#OpenEnded 2]	277 nM	302 nM	253 nM	200 nM	88.4 nM
